Experimental findings from a protein production outcome set (Wang et al. 2014) are described below.

This series is described as follows: label from the status in PepcDB records.
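Note: failed if final PepcDB status was selected cloned or expressed and not failed if soluble or beyond.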

In the case of “MLLSMLRFEWRYYLRQPSFYVVSFLLFLMSFLSVASNNIQIGSGGEVMKNSPFSISQTLLIMGLISMFAVVNFVGSTAIRNHQHLMEELVYSKPLSPFAYQFGRFLGSFMVVLAVFAFVPIGLMLGSFMPWVDASRFGPFALSHYVIPYLQLSVPSLLLISCLFYAMASRFRSLMALYLTAVAMLVLYTLTGEMASQPQYRTIAALLDPFALRTFAEVTRYWTISEKNHQLLELSGLVLQNRALWLVIAGVLLAMSGIFSQPTLTKKRDKKSSKVEKIPDLVPLTALAMATLPNGRLQFWTRVKFEVRQVLLTAPFVVLGALTVFNLVGPMFDDFGWYGTSNWPLTQDMVDNIAGATGLLMVIVLIYYSAEIVWRERSSGMGDIVDSVPVSNLSFWASKLVAVLIVMTLLYMLAMGTTIVFQLIKGQSNLEISQYLIRLGFYYLLPLLMTSVLAFFLQVLSPNKYAGMGLFVAYYLTTFVMANWGFGHSLYNFGQSPSVSYSDMNGYGWGLLSHSLYMIYWGAFSVMLFVLGYGLYHRGPQQSLKTRLGLLGYQLGHNGKVIIAAALVIFVGSGSYLFYQTKVVNHYLTQEETTDLQADYEKTFKQYQGMPILVTTRVNANVDIFPEQRKIAAKVMFEWQNKSDKPIEKMLVQFPEHTQAETVKINIPNTHLGEFDRRYRNAWLTFSTPVQPGQLVVGNIELVRESTGVAESGFDLSVVENGTFINNFELLPLFGYQDGYELMDRHERQKRGLAEKNRANKLEDSRFYQQNFFGVDGDFIQFEATISTSMDQIALAPGYLQKQWQQDDRQYFHYLMDSPMVNFYAIISGRYQVEKIEHHGVAVEVYYHADHSWNVTRMVESVKDSIDYYTAAFGPYQHKQMRIMEFPGYRSFAQSFANTVPYSERIGFITDLRNEDNIDPVYYVTAHEVAHQWWGHQVGAADVQGSAVISESLSQYSALMVLEHKYGDKMIRKFLKYELDRYLRGRSAESIKEQPLLRSENQQYIHYQKGSVVMMAIKDVLGEAKLNANLKAFLTRYQYRNDPFPTTLDLVSYLKQGTDEVQSRFIDESFNDITLYDLRLTNAVAKTLPDGKTQLELTIYASRKVATGKGEEAEQPLDMSIDIGAFSADPDKLKDEKQILLLEKHHLVSGENKLTITLAEKPSYVGVDPFVKLIDRDARDNIFKL”, the protein production result is “failed”. Take “MLLVGVAIAFLHKYIVLVVLTSILITACQGDIIDNPNLESNVPQSTDCRVVEHAVGKTKICGKPKKIAVLEPKMLSLMLALDVQPAAYADAYLVNAPQFDNPSQQIPYLGKYVTSQPINLGDRSSPSLEALTLLKPDLILGLNYQDNQLFSAIAPTVFIDNEQNWQESIKIVAKALDSQKNIPSIITSQQQQLAKVRAQLESLVSTHPRVLNIVCSQLMDYIEVTYNGNTIEILEKIGFQPVFLPDIERKPGLRPQITLETLAQLDADIVIVNTWVDNWNGKSTYTVPLKELKQKWAKNPLLHNSQAWKEGRVYFVDYTLWGNVIGAPIANALILEQLPSLLLSNTLKP”: the protein production result is reported as “failed”. Regarding “MLMNNRVNNMMRTYKFRIYISKSIQETIEEHLNICRYLYNYLLEQKTKNPKLNKGDTQKLITEHKKENPELKKVHSKALQMVNNKLWGNLKALGKLKQNGHKVGKLRFKSSKNHYKTIEYNQSGFKIKDNKLYLSKIGEISIKLHRKIKGEIKGVIIKKELTNKWFAFFQVEEEPKPLPKTNKVVGIDLGIDGYTIDSDGNKFENPKFIDETLDKIKKVQKNLSRKVRGSNNYKKTKLKLIKVYDKLNNQKNDFLHKLSRYYINNYDKIVLEDLNIKSMVENKKGQKTLNRHILDGSWKKFINLLLYKAEGAGREVILINPAYTSKKCFNCGCVVSSLRLSDRIFFCPNCGWKIDRDYNASLNILKSGLGESVVPAEGRPLLRVIPYIKVISGQVSPMNQEALPEGRGLRKPKGFRSTPSVREG”, the protein production entry is “failed”. For the sequence “MLNIQNYSASPHPGIVAERPQTPSASEHAEIAVVPSTTEHRGTDIISLSQAATKIQQAQQTLQSTPPISEENNDERTLARQQLTSSLNALAKSGVSLSAEQNENLRSTFSAPTSALFSASPMAQPRTTISDAEIWDMVSQNISAIGDSYLGVYENVVAVYTDFYQAFSDILSKMGGWLSPGKDGNTIKLNVDSLKSEISSLINKYTQINKNTILFPSQTGSGMTTATKAEAEQWIKELNLPDSCLKASGSGYVVLVDTGPLSKMVSDLNGIGSGSALELDNAKYQAWQSGFKAQEENLKTTLQTLTQKYSNANSLYDNLVKVLSSTISSSLETAKSFLQG”, the protein production result was “failed”.

On to “MLNMSFAPTSLTVSQMSGTRTIRPLTAATLCGIAFIQDRLIAIDSIKGHLLEIDPKTDNSKILNPHQAKEFTDVTGLAVWEDNLWVTRGNSVYVSKLSSLGLEHFVTLPYSADGVAVWESTVYVSCHRLGYILIFDRDTRKEITRFYAPGVGVENLVVNGNTLWVCDRTEQTVYSMDRATGEVIFSVLTPFESPTGIAVHLDAETGKENLYVAYASEEPYIRDNPNADPNHELTYRDRTFIHPLYYHHQPDKHYALSNGYLIEMSYAEEISPLEEVYIPEVEWRIALPSETERQKIRHIEPIGIPFTEEVIDGQRVALFKFDALVPGERHIFGWKALLEVRGIKYRITPKEVENIPELSPEFQERYLVDDDDLAMDTSIVRRAAEEAVGSETNLLRKMYSIRNYVYDELSYGIKPYIDTPDIVLERGIGSCGEYVGVLLALCRLNGIPCRTVGRYKCPPQAEQQGVPLQPDFNHVWLEFYIPGFGWLPMESNPDDLGRGSQYPTRFFMGLCWYHIEIGKGVSFETISSQGKRLTKDDIPIGDLAINHIRFTIVKELPDF”, for which the protein production result was “failed”.

For “MLNPVSQLSQAIRENTEHLAEKMKILFQNTGRAWEDLEARINAENEVPILKTSNKEISSILKELRRVQKQLEVINAIVDPSGSLDLLTGNRSLASSAQPGLGKGRVAAQSPPSPASAEALLPALPLRNFPQRASCGPPSLPDPTFLPDAERFLI”, the protein production entry was “failed”. Consider “MLNVIHALFFRELKTRFGKNRYLGYIWVVGEPMSVVLLVTIIGTVIREYHHQVMPEGISIFMFLISGIMPFFMFRSIVTQLMNGIGANLSLFAYKPVKPIHVFIARTLLEFCIYFVIFITVLFFAGWFFRLDVFPVHLLGVLFCIFLLICSAFALGICFAIVWHFVESLRTLLAYFSIVFYWSSGIIFPTWLTPRPLLDIFYYNPLLHIFELLRFNFFENYPLQDEYSYFYAIFWILLVLFIGLFIYYYNRQALTAAKKE”, for which the protein production entry is given as “failed”.

Take “MLPARLPFRLLSLFLRGSAPTAARHGLREPLLERRCAAASSFQHSSSLGRELPYDPVDTEGFGEGGDMQERFLFPEYILDPEPQPTREKQLQELQQQQEEEERQRQQRREERRQQNLRARSREHPVVGHPDPALPPSGVNCSGCGAELHCQDAGVPGYLPREKFLRTAEADGGLARTVCQRCWLLSHHRRALRLQVSREQYLELVSAALRRPGPSLVLYMVDLLDLPDALLPDLPALVGPKQLIVLGNKVDLLPQDAPGYRQRLRERLWEDCARAGLLLAPGHQGPQRPVKDEPQDGENPNPPNWSRTVVRDVRLISAKTGYGVEELISALQRSWRYRGDVYLVGATNAGKSTLFNTLLESDYCTAKGSEAIDRATISPWPGTTLNLLKFPICNPTPYRMFKRHQRLKKDSTQAEEDLSEQEQNQLNVLKKHGYVVGRVGRTFLYSEEQKDNIPFEFDADSLAFDMENDPVMGTHKSTKQVELTAQDVKDAHWFYDTPGITKENCILNLLTEKEVNIVLPTQSIVPRTFVLKPGMVLFLGAIGRIDFLQGNQSAWFTVVASNILPVHITSLDRADALYQKHAGHTLLQIPMGGKERMAGFPPLVAEDIMLKEGLGASEAVADIKFSSAGWVSVTPNFKDRLHLRGYTPEGTVLTVRPPLLPYIVNIKGQRIKKSVAYKTKKPPSLMYNVRKKKGKINV”: the protein production result is reported as “failed”. In the case of “MLPGLKYIDRIGVDDVLVWLRKGIVWIVLAIVLCVGGALTYASMTPPRYKAYTDIVVNPSNLNVVNDGVFSPNQQRDTQILEVESKLRTITSRNVLARVVDELKLDQDPEFVSPPPLARLKAMFSSKPDDGDNRVGALRSLGDRVTAERDPRSFVVTLSVWTNDAEKSVAVSKAIVKAFESELFQTNSDSSQRVVDDLKKRLEEMRENVTIAEKRVADFRRENGLQENNGQLVSNLASGELNAQVLATQQRLIQEESRLKQMEAAIAQNRTQSDAIFDSQTMNTIRAQYSTLQQQIGAMTLTYGARHPRLATAGAERAMLERGMADEARRILQAAKINVAEARSSLDALRLKAVAERANVFTDNDAQVRLRDLDRDARSAAAIYETYLTRSRQLAEQQSIDSTNVRVISQPVAPNSRSWPPGKLTFLIAGGMGGLFLGLAIAVALGLWGYLRRDDHAEAAARYA” it was “failed”. The same measure for “MLPHYKQQAVIDSGLAAVGFRPENQRIYPNGSLAAHILGAVDIDNFGIAGIEKWIDANWLADLRGAGLALKGRDLQPVELSIDLRVQYAMEQELGKAVKKFGAAAGAGLLLDVTNGEILALASYPAFDPNNPVDAFKPDRINRVTAGVFEMGSTFKALTTAMALESGRFDLESVVDASRPLSFGRQRIHDYRGKYRPLTVPEAFIHSSNIVMAKMAMTLGPEALRTFLGRFGVLSQLATELPESAAPLRPSSWSEVTTATVSFGHGIAVTPLQASMAVAALANGGRLIRPTFIKDSPVSERTIAESLLSANTSEAIRHLLRLNAAVGSATKADVPGYVIGGKTGTAEKVVQGRYSKVLNVTSFMGIVPADNPRYLLLTLLDEPRGLAETYGNRTSGWNAVPLGGALLHRILPMLLKPVFPSPSSAEAVPVATGEPSVDDSSSD”: “failed”; for “MLPIAPCARQAVHRQCGGMQNSAAARKLHAVLPRTLDTARIARRSSMFLRRNGLSLCLLALTIFFIGCQVYAGLHAYNDELREQGQPTLLLSAYLHSPHFMSALFENWESEFLQMGMYVLLTVKLRQVGSAESRPLDPTEETVEIKSGPTPWPVRAGGVWRRLYDHSLAIAFAALFLMSFALHLVGSWRLEVTERAQKGLPPITVLEHFTSASFWFESMQNWQSEFLAVFSLVVLTIWLRQKDSPQSKPVEAPHSQTGG”: “failed”; for “MLPIWFLIVIILKSVEFVITSFFLRDISKEMIFFSDLLGRIIVIIFYVLPIATYISVMFSQFLYLFIIHIFLYIICFMAFVSSALRIKRCIH”: “failed”. The same measure for “MLPVSTSVQRSTRQQKITYLYNRNEQSNKKAVTMKTTTTETSIPEEKTTSARIQAYSKSQLAALYLPHIQPASARRTLRSWIAKNTELQAALARSGYTGKAILLTPAQVGLFFRFLGEP”: “failed”.

As to “MLPWNFEGEASEPAQDPTMAPHKRQSYEEELANAITHGVGLVLSLIGWVGLLVLSGLAGGGWDLAASAVFGGTLVFLYATSTLYHSVGTARLKRTLRILDHVAIFLLIAGTYTPFAGVLMREGWGWSVLALVWGIALAGLLFKLFSTHRFHPAATTLYLLMGWLGVLFADPMSAALPLGGLLLIVAGGLAYTIGVLFYGWHSLRYSHAIWHVFVLVGSACHYAAVVLYVL”, the protein production entry was “failed”. The same measure for “MLQIADYIAENYRGKVVEVGIGRFTAVAELLARRGFEVFATDVVERRAPEGCRFYVDDVTKPNLKIYEGASLIYSLRPPPELFSAIVEVSRKVGADCLIKPLYGDYMEARIVNYKGAQFYLIRRENYD”: “failed”; for “MLQPGGTPTKIVCLTQVVTADDLRDDAEYADIMEDMSQEGGKFGNLVNVVIPRPNPDHDPTPGVGKVFLEYADVDGSSKARSGMNGRKFGGNQVVAVYYPEDKYAQGDYED”: “failed”; for “MLQRFYETLSTLRARWTRFTESPMGAWVRTGLRWLFVGGIVAYLAYELTTIGWGEVARALPVTPWFYVLLLLMYGTLPLTEAVLYGTAWGAQYRDLLPVLFRKRVLNNDVLGYSGEAYFYLWARRETNLGTGTVLRTVKDNVVISSVASTSVAFGLLAVFFLTGQIELLRQYLPSEAYTLGAGVAVLIILVSAVVAFRRSILSLPSSLLGLFAAGHVARFVLNNGLQVTQWAVVIPEVSAGTWITLLALYIVIQQVPFVPSRGLVFMSAGVGLSGPLQIPEAPLASMLLAQSLLDRGLNFLVYTGTTAAEAVGDDVEELDDLSIPEEMG”: “failed”. “MLREPGAADRAAFVELLASPEVHTYLGGPRPRAELERELPGTPERWPGSFVVDLDGEMIGQVLLRRTREHCCPVAVGKVDLGYLFLPRAWGLGYAAEACAAALDWLDCVLPGEPVVLNTQTANTGSMRLAAKLGFTEVERFRAWDAEQWLGLRPPLT”: the protein production result was “failed”.
